Test results: article PMC4476568
Where “and” joins values, the source holds several entries; their conditions need not be identical. Equal values may be shown once.

Molecular target: EGFP-labeled nuclear transport factor 2 (NTF2) (human) (UniProt P61970)
Experiment: fluorescence fluctuation spectroscopy brightness analysis (MSQ with z-scan FFS); living E. coli cells in agarose; two-photon excitation at 1000 nm, ~1 mW, focus at the geometric centre of the cell; MSQ-curve fit to Eqs 14 and 22; normalized brightness against EGFP in solution, corrected for cell geometry

stoichiometry N: 2.1 and 1.94
Substance: EGFP-labeled nuclear transport factor 2 (NTF2) (from UniProt P61970 1-127) (natural protein; other documents disagree on this pair)
